What all share (test): IEDB peptide-MHC binding, purified MHC/competitive/radioactivity; filed as Kd, often an IC50 or EC50 that approximates it; ≥ and ≤ were set here for values at or beyond the usual limits of such assays
Experiment [1] deals with HLA-A*31:01.
For experiment [2], the target named is HLA-A*03:01.
Experiment [3] concerns the target HLA-A*33:01.
Experiment [4] concerns the target HLA-A*68:01.
Experiment [5] deals with HLA-A*11:01.
Setting [6] is: source organism: Vaccinia virus Copenhagen.
Setting [7] is: source organism: SARS coronavirus Tor2.
[8] abbreviates: source organism: Dengue virus 4 Philippines/H241/1956.
The mark [9] stands for this setting: source organism: Dengue virus 3 Martinique/1243/1999.
The mark [10] stands for this setting: source organism: Vaccinia virus WR.
Setting [11] is: source organism: Lymphocytic choriomeningitis virus (strain Armstrong).
Setting [12] is: source organism: Dengue virus 2 Jamaica/1409/1983.
The mark [13] stands for this setting: source organism: Dengue virus 4 Thailand/0348/1991.
[14] abbreviates: source organism: Dengue virus 1 Brazil/97-11/1997.
[15] abbreviates: source organism: Dengue virus 4 Dominica/814669/1981.
Where [16] appears, read: source organism: Mammarenavirus brazilense.

pKd: −log10 of the molar value.

Regarding RVIWMDAYK, the pKd is 8.98 in experiment [1] (setting [6]); 8.39 in experiment [2] (setting [6]); 5.32 in experiment [3] (setting [6]); 9.08 in experiment [4] (setting [6]); 9.10 in experiment [5] (setting [6]).
As for IMASLVLAR, the pKd is 7.74 in experiment [1] (setting [7]); 7.97 in experiment [2] (setting [7]); 6.25 in experiment [3] (setting [7]); 7.55 in experiment [4] (setting [7]); 6.98 in experiment [5] (setting [7]).
EFGRAKGSR: in experiment [3] (setting [8]), the pKd is 7.42.
As to NFLKEQHCQK, the pKd in experiment [1] (setting [7]) is 5.83; in experiment [2] (setting [7]), 5.14; in experiment [3] (setting [7]) it was 5.91; in experiment [4] (setting [7]) it was at most 4.44; in experiment [5] (setting [7]) it was 4.88.
The matching figures for FLKEQHCQK: 6.10, 6.71, 6.19, 5.88 and 4.81.
In the case of YQNKVVKVLR, the negative logarithm of the Kd (pKd) in experiment [3] (setting [8]) is 6.35.
Take VTAASAAQRR: the pKd in experiment [4] (setting [9]) was 7.37.
IMFMLIFNVK: the pKd in experiment [1] (setting [10]) is 6.18; in experiment [2] (setting [10]) it was 6.80; in experiment [3] (setting [10]), 5.91; in experiment [4] (setting [10]), 6.87; in experiment [5] (setting [10]) it was 6.70.
With VCLALTNSMK, the pKd in experiment [1] (setting [11]) is 5.34; in experiment [2] (setting [11]) it was 7.37; in experiment [3] (setting [11]) it was at most 4.18; in experiment [4] (setting [11]), 4.71; in experiment [5] (setting [11]), 6.20.
Take GAMLFLISGK: the negative logarithm of the Kd (pKd) in experiment [2] (setting [9]) was 8.41; in experiment [5] (setting [9]), 7.37.
TFAAGLLLR: the pKd in experiment [3] (setting [12]) was 7.17.
Regarding TVMAFHLSTR, the negative-log Kd (pKd) in experiment [1] (setting [13]) is 8.23; in experiment [3] (setting [13]), 7.67; in experiment [4] (setting [13]), 8.35; in experiment [5] (setting [13]) it was 7.16.
As for SIMKSVGTGK, the pKd in experiment [2] (setting [9]) is 8.08; in experiment [5] (setting [9]), 7.69.
With RINGIPQQH, in experiment [2] (source organism: Homo sapiens), the pKd is 6.96.
For the sequence TTNIWLKLR, the pKd was 8.58 in experiment [1] (setting [12]) and 8.14 in experiment [3] (setting [12]).
With PTFAAGLLLR, the pKd in experiment [4] (setting [12]) is 6.08.
Turning to GTSIFAGHLK, the pKd in experiment [2] (setting [9]) was 8.41; in experiment [4] (setting [9]), 6.94; in experiment [5] (setting [9]) it was 7.63.
In the case of TVASAAQRR, the pKd in experiment [4] (setting [14]) is 7.47.
As for RMLNILNRR, the pKd in experiment [1] (setting [12]) was 8.62.
For RLPTFMTQK, the pKd in experiment [2] (setting [12]) was 8.63.
Consider NMLKRERNR, for which the pKd in experiment [3] (setting [12]) was 7.10.
In the case of MTLMKGASRR, the pKd in experiment [1] (setting [15]) is 7.09; in experiment [3] (setting [15]), 7.16; in experiment [4] (setting [15]) it was 7.40.
With DTTPFGQQR, the pKd in experiment [3] (setting [8]) is 7.02; in experiment [4] (setting [8]), 7.04.
For TIEEGRTLR, in experiment [3] (setting [14]), the pKd was 6.42.
With ILKRWGQLKK, the pKd in experiment [2] (setting [8]) was 7.41.
As to WSYYMATLK, the pKd in experiment [2] (setting [8]) is 8.48; in experiment [4] (setting [8]), 8.74; in experiment [5] (setting [8]), 7.79.
In the case of VLARWGTFKK, the pKd in experiment [2] (setting [9]) was 7.74.
Consider LTTLSRTSKK, for which the pKd in experiment [5] (setting [12]) was 5.73.
In the case of HMIVSKQER, the values for the pKd in experiment [1] (setting [14]) and in experiment [3] (setting [14]) were at most 4.11 and 5.06, respectively.
Take ATCVYNMMGK: the pKd in experiment [2] (setting [14]) was 8.72; in experiment [5] (setting [14]), 7.70.
As for YVSAIAQAK, the negative logarithm of the Kd (pKd) in experiment [4] (setting [14]) is 7.44.
Regarding CSSLTEEFYH, the pKd is 5.47 in experiment [1] (setting [16]), at most 4.50 in experiment [4] (setting [16]) and 5.06 in experiment [5] (setting [16]).
Turning to KVASAGISYK, the pKd is 8.50 in experiment [2] (setting [8]) and 7.64 in experiment [5] (setting [8]).
For YVCKHTYVDR, the pKd was 6.88 in experiment [1] (setting [9]) and 6.05 in experiment [4] (setting [9]).
ELTLDCEPR: the results for the pKd in experiment [3] (setting [8]) and in experiment [4] (setting [8]) were 7.49 and 6.64, respectively.
As for ALNDTWKMEK, the pKd in experiment [2] (setting [12]) is 7.08; in experiment [5] (setting [12]) it was 6.41.
Regarding FFTASLFLH, in experiment [5] (source organism: Mammarenavirus juninense), the pKd was 6.61.
TMRCIGISNR: the results for the pKd in experiment [1] (setting [12]) and in experiment [3] (setting [12]) were 8.44 and 7.85, respectively.
IVTCAMFTCK: the pKd in experiment [2] (setting [12]) is 6.44; in experiment [5] (setting [12]), 6.45.
For SALTLHWFR, the pKd was 9.61 in experiment [1] (setting [8]), 8.43 in experiment [3] (setting [8]) and 8.63 in experiment [4] (setting [8]).
Take IVTMFEALPH: the pKd in experiment [1] (setting [11]) is at most 4.15; in experiment [3] (setting [11]), 7.12; in experiment [4] (setting [11]), 5.23.

The values are drawn from the Immune Epitope Database (IEDB).
